Results from the DeepSol protein solubility set.

assay: soluble on expression in E. coli; label from the status in PepcDB or PDB records

| Sequence | soluble on expression in E. coli |
| --- | --- |
| MAHHHHHHMIDPVKRDLTNLFLEKREMAKEEIDPRKDWLKRILLNNNTNDLRMFLKASELKTKEGDYCMTCKSNVKQLLYLHTKKNYCHLCEEIFCAYCVKSIDFMKDEKEKYIKIRLCRNCFIYINELKYIINPNLSVDRKAIDLQNSFNDISNCYTNLCSNVPQLNGLVLLCENNKEFLDSFKSEIKQLEEKIQHDVDFLNIMKKKNNFLSDNTLILNKMGKNLLLYLKIIRNKIIPSSIEVLNKTKELLYKK | not soluble |
| PATDASVLLVQLSDSHLFAEDGARLLGMDTAHSLEKVVERVAREQPRIDLILATGDVSQDGSLDSYTRFRRLSAPLDAPLRWFAGNHDEREPMQRATEGSDLLEQVVDVGNWRVVLLDSSIPGAVPGYLEEDQLELLRRAIDSAGERFLLVSFHHHPVPIGSDWMDPIGLRNPQALFDLLAPYPQVRCLLWGHIHQEFDRQRGPLRLLASPSTCVQFAPGSSDFTLDRLAPGYRWLRLHDDGRLETGISRVDDVVF | not soluble |
| MAQMKDNNVSNRATLVLYENRFIPLYRMIKEELIRFVQKKGIKSGMALPGDNELASQFGVSVGTVRRAIAELVSERIVIRQQGRGTFLAPYDTSRMLNSFWHIERRDGVVDVPLVSTHGFSQASATEEVAQKLALQPGDPVFVIKNSMTMQGTPVLLDTIYVPVRTFEGLTREKLSARDATIYDFYREQYGINIVKTIDRVSATVADKDTAKRLGCKLGAPMLRILRVAYSFGDTPIEYRCSLLDSENHEYVDVTGGDTSRYG | not soluble |
| MSKIASEVVATTLNDWYIAIKKQKVDESIKYYSEIKKLFDEMEEDQEVLAYYSLLEERHKMLLHSSRGEPLQKHTYFTEDNQNFITKTNDKLEYNFYLFEAMYEAYNKNYDRAINLYGLAEKKLAEIPDEIEAAEFYSKVSYLYTLVKQSIVAQHYIKNAISIYKRHPDYKCKLATSTMIAAANYADMKRFEEAEQYYLEAIDIAKETKDEFLKAQLFHNLSIVYSDWNKPDKCIESLEKAIGNESWLHSIYYINSLFMMIKELFKIDEKMKAINFYNKAQERLILMENKVYEAKISILYNLYCGELKNNFNNCISNIEFLKQQNELESVDELSYIAAKRFESIGAFEEATSFFNAKIWAEQKMNQVEGIL | not soluble |
| MIFLIVLKYPVSLNVIRKLKTGDVVYYTGKIVVMDRSVVDILEKYERYEGTKLYDLTGEIVVLGTFRKNKLQFQEMTEELLERLFLLGVNGVILERVRPFSATKRFSRVLFEPLEEIRGTRRVIYKTPDSKKLEELEVEKLVLRVVQDSSGKVYSKV | not soluble |
| MGSDKIHHHHHHMQPYYWESAHGNFGDDLNLWLWDFLMPGFRDVHPETLLVGVGTVLNRALLPEGQHKLVIGSGFGYGSLPDMSRPEEWDIRSVRGPLTAKALGLPPEKGVIDPAVMLADMPEFQKLPKLYKKSFVPHWESAVAGVWASIVPKVGLTYIDPCGEAKAVIRQILQSEVIIAESMHGAIIADALRVPWVAVSTSASINSFKWNDWASTLGVTYKPLRVPLSSRAEAQIKGESFWGMSFKNHQPAPENPNDLAVDAAVLEQARGPKQTGLRTAVKQILAGPAMLNLWKASQAEPQLSRDSVLQERKARFLEVIEGVRRDYGIAAVS | not soluble |
| MSLATQAVSLARVRGPLALAALTLLGACSTRTAVPTPAPVAGSPSVAPESPRPPEVASGYRTGMTTAYAEQHMAAAANPLAAEAGRRILRQGGSAIDAAIAMQAVLTLVEPQASGIGGGAFLLYWDGKRVQAYDGWETAPAGADENLFLRPDGTSMGLSEARIGGRAVGVPGVLRALELAHRRYGKLPWTRLLQPAVELAEQGFPVSPRLYTQIAADPFIAGSPEMAAYFLTPQGKPKPVGTIVRNPQLAQTLREIARHGPGAFYAGPIAADIVKRVSGGANPGTLSLADLRGYRAKERDPICADYQRWKVCGMPPPSSGGIAIAQMLGTLQALAARDPKYALAAMAPRETTRAAGLEPSVDAVHVVSEAGRQADADRGLYVADADFVPVNVKGLTDPGYLTLRAGLIGDRSTGRADPGTPPGTSIALAPDRSPPRVSTSQIVAVDNAGGAVSMTTAIDSDFGAHLMVRGFVLNSGLTDFSFVPNDGGKPVANRVQAGKRPRSSMAPTLVFERDSGRLVAALGSPGGSQSIEYVSKTLIGLLDWDMDVQSAINLPNFGSRNGPTEVERGLVTQPLVQGLKARGHDVAQIEMTSGTQAIVRRRRDDGRWGWAGGADPRREGVALGDEGHHHHHH | not soluble |
| GPGSMVVKDISLADWGRKELDIAETEMPGLMAAREEFGKSQPLKGARISGSLHMTIQTAVLIETLKVLGAEVRWASCNIFSTQDHAAAAIAATGTPVFAVKGETLEEYWTYTDQIFQWPDGEPSNMILDDGGDATMYILIGARAEAGEDVLSNPQSEEEEVLFAQIKKRMAATPGFFTKQRAAIKGVTEETTTGVNRLYQLQKKGLLPFPAINVNDSVTKSKFDNKYGCKESLVDGIRRGTDVMMAGKVAVVCGYGDVGKGSAQSLAGAGARVKVTEVDPICALQAAMDGFEVVTLDDAASTADIVVTTTGNKDVITIDHMRKMKDMCIVGNIGHFDNEIQVAALRNLKWTNVKPQVDLIEFPDGKRLILLSEGRLLNLGNATGHPSFVMSASFTNQVLGQIELFTRTDAYKNEVYVLPKHLDEKVARLHLDKLGAKLTVLSEEQAAYIGVTPQGPFKSEHYRY | soluble |
| MGHHHHHHSHMALVTVQRSPTPSTTSSPCASEADSGEEECRSQPRSISESFLTVKGAALFLPRGNGSSTPRISHRRNKHAGDLQQHLQAMFILLRPEDNIRLAVRLESTYQNRTRYMVVVSTNGRQDTEESIVLGMDFSSNDSSTCTMGLVLPLWSDTLIHLDGDGGFSVSTDNRVHIFKPVSVQAMWVDRDSRNKHCDVLLVEE | not soluble |
| MGSSHHHHHHGSLPPREDAARVARFVTHVSDWGALATISTLEAVRGRPFADVLSLSDGPPGAGSGVPYFYLSPLQLSVSNLQENPYATLTMTLAQTNFCKKHGFDPQSPLCVHIMLSGTVTKVNETEMDIAKHSLFIRHPEMKTWPSSHNWFFAKLNITNIWVLDYFGGPKIVTPEEYYNVTVQ | soluble |
| MSSGLYSMEKKEFDKVLDLERVKPYGDTMNDGKVQLSFTLPLKNNERSAEAAKQIALKMGLEEPSVVMQQSLDEEFTFFVVYGNFVQSVNYNEIHVEAVNSEILSMEETDEYIKENIGRKIVVVGASTGTDAHTVGIDAIMNMKGYAGHYGLERYEMIDAYNLGSQVANEDFIKKAVELEADVLLVSQTVTQKNVHIQNMTHLIELLEAEGLRDRFVLLCGGPRINNEIAKELGYDAGFGPGRFADDVATFAVKTLNDRMNS | soluble |
| MMLRTEEMILNVGPQHPSTHGVFRLILKIDGEIIQEATPVIGYLHRGTEKIAEGLQYTQIIPYTDRMDYLSAMTNNYVLCHAVETMMGIEVPERAEYLRVLAMELGRIASHLVWWGTYLLDLGATSPFLYAFREREMIINLLNELSGARLTFNYMRIGGVKWDAPDGWIDKVKQFVPYMREKLHGYHELVTGNEIFRQRVTGVGRYTKEEAISYSLSGVNLRSTGVKWDLRKDEPYSIYDRFDFDVPVRDSGDCLARYECRMAEIEQSLCIIEQACEQFPPEGPIMGKVPRIIKAPPGETFVRIEAPRGEIGCYIASDGKKEPYRLKFRRPSFYNLQILPKLLKGENLANVIAILGSIDIVLGEVDG | not soluble |
| ADVPAGVQLADKQTLVRNNGSEVQSLDPHKIEGVPESNVSRDLFEGLLISDVEGHPSPGVAEKWENKDFKVWTFHLRENAKWSDGTPVTAHDFVYSWQRLADPNTASPYASYLQYGHIANIDDIIAGKKPATDLGVKALDDHTFEVTLSEPVPYFYKLLVHPSVSPVPKSAVEKFGDKWTQPANIVTNGAYKLKNWVVNERIVLERNPQYWDNAKTVINQVTYLPISSEVTDVNRYRSGEIDMTYNNMPIELFQKLKKEIPNEVRVDPYLCTYYYEINNQKAPFNDVRVRTALKLALDRDIIVNKVKNQGDLPAYSYTPPYTDGAKLVEPEWFKWSQQKRNEEAKKLLAEAGFTADKPLTFDLLYNTSDLHKKLAIAVASIWKKNLGVNVNLENQEWKTFLDTRHQGTFDVARAGWCADYNEPTSFLNTMLSDSSNNTAHYKSPAFDKLIADTLKVADDTQRSELYAKAEQQLDKDSAIVPVYYYVNARLVKPWVGGYTGKDPLDNIYVKNLYIIKH | soluble |
